According to PMC10315481:

Biological target: globupain, wild-type zymogen (proenzyme) (unclassified Archaeoglobus species (metagenome))
Experiment: SEC + AUC; SEC: Superdex 75 10/300 GL, 50 mM potassium phosphate pH 7.0, 150 mM NaCl, 500 uL of globupain at 1 mg/mL, calibrated with proteins of known molecular weight; AUC (p-0016): sedimentation velocity, 20°C, 50,000 rpm, 50 mM potassium phosphate pH 7.0, 150 mM NaCl, 1 mM EDTA, c(s) distribution in …

globupain, wild-type zymogen (proenzyme)
stoichiometry N: 2
